We go through 1 variant from IntAct's records for PubMed 20111005.

B1: CCAAT/enhancer-binding protein beta (Gallus gallus (Chicken)), Q05826 (parent)
chain: MQRLVAWDAACLPIQPPAFKSMEVANFYYEADCLAALNKLHPRAAGGRSMTELTVGDHERAIDFSPYLDPLAASQQPAQPPPPAAAAGGNFEPACSSGGQDFLSDLFAEDYKGSGGGKKPDYTYISLTRHGHPCGSQSHKPGVLPGCFPPQIVETKVEPVFETLDSCKGPRKEEGGAGPGPGGMSSPYGSTVRSYLGYQSVPSGSSGNLSTSSSSSPPGTPNPSESSKSAAGAGGYSGPPAGKNKPKKCVDKHSDEYKLRRERNNIAVRKSRDKAKMRNLETQHKVLELTAENERLQKKVEQLSRELSTLRNLFKQLPEPLLASSPRC

Variants of B1 are the subject of the assay. To be noted: with smca2_human SMARCA2, P51531.
Chain of smca2_human SMARCA2, P51531 (P51531 whole entry): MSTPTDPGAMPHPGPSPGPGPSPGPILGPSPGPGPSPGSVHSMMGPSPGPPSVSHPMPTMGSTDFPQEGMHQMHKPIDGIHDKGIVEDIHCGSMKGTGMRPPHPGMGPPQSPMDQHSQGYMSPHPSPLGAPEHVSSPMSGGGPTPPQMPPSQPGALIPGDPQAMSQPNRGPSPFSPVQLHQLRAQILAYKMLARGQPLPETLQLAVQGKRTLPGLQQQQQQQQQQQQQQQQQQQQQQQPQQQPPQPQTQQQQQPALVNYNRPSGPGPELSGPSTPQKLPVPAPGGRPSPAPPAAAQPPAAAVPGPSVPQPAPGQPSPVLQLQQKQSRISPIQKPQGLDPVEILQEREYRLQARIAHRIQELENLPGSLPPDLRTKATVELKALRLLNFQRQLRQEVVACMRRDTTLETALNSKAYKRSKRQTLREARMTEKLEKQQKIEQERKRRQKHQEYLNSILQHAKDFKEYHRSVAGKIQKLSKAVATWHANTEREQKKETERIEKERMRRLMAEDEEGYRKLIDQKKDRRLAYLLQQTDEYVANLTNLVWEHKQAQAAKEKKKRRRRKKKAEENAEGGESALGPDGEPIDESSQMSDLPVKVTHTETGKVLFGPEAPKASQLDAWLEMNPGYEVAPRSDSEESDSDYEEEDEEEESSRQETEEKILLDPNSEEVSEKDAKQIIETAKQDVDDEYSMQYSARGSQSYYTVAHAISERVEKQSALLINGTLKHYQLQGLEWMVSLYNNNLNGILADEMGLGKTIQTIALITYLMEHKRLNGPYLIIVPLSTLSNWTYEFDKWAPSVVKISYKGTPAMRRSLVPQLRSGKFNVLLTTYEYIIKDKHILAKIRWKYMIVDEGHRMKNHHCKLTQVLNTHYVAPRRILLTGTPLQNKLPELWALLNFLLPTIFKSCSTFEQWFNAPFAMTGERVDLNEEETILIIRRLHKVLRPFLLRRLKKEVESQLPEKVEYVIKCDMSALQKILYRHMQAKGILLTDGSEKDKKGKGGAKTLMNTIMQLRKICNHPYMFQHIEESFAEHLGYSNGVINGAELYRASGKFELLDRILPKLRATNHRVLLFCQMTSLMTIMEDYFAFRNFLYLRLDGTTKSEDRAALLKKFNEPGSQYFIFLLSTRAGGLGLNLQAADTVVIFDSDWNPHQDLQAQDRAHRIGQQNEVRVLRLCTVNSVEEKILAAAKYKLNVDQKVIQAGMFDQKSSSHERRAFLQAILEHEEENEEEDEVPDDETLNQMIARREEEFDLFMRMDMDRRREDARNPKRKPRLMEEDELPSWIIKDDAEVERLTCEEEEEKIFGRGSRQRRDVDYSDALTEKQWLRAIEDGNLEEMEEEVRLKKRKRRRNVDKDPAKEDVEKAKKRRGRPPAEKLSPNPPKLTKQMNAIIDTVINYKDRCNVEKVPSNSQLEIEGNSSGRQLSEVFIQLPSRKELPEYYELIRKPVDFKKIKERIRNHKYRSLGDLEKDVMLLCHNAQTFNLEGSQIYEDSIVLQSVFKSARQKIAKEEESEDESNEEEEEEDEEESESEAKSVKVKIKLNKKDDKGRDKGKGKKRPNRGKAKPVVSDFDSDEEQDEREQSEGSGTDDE
For the variant R3L, the “effect of a mutation on the interaction” value is on record as “decreasing interaction”.
